Measured values published in patent US20240272176A1, “SINGLE DOMAIN ANTIBODY SPECIFIC FOR PHOSPHORYLATED H2AX AND ITS USES” (UNIVERSITE DE STRASBOURG, priority 2021, published 2024).

Assays:
[1] = biological target: T1, γ-H2AX (histone H2AX phosphorylated at serine 139) in drug-treated H1299 or U2OS cells or their extracts (human, UniProt P16104 1-143, phosphorylation of serine at position 139 (S139)); test: mCherry fluorescence in transfected H1299 cells after CSK wash
T1 construct: Endogenous nuclear protein of H1299 and U2OS cells (fixed, living, or nuclear/histone extracts), not on the cell surface; also called gammaH2AX; γ-H2AX foci
Experimental: Thus, despite their solubility in mammalian cells, these reagents cannot be transfected into cells to detect with precision γ-H2AX after drug treatment likely due to too high chromobody expression levels.
For the analysis by classical immunofluorescence microscopy, the transfected or transduced cells were fixed with 4% paraformaldehyde for 20 minutes and, after permeabilization with 0.2% Triton X100 for 5 min, they were incubated with mAb 3F4 or VHH preparations diluted in PBS containing either 10% fetal calf serum or 2% BSA. Where indicated, the cells were treated with CSK-100 modified buffer (100 mM NaCl, 300 mM sucrose, 3 mM MgCl₂, 10 mM HEPES pH 6.8, 1 mM EGTA, and 0.2% Triton X-100) for 5 minutes prior to fixation. […] Where indicated, Alexa 568 labelled-C6B molecules were used. The labelling of the purified bivalent C6 equipped with a cysteine residue at the C-terminus was performed essentially as previously described (Shaner, N.C. et al.; Nat. Biotechnol. 2004, 22, 1567-1572). Briefly, purified protein in 0.1 M KH₂PO₄ pH 6.5, 150 mM NaCl, 1 mM EDTA, 250 mM sucrose was mixed with a 1.2 molar amount of Alexa Fluor 568 maleimide derivative (ThermoFisher Scientific). […] The amount of fluorophore per bivalent C6 in the flow-through was calculated by spectrophotometry with a Nanodrop 2000 device (ThermoFisher Scientific). […] The signal was recorded with a Leica DFC350FX camera. […]

γ-H2AX in H1299 cells = biological target: T2, γ-H2AX in H1299 cells (Homo sapiens, UniProt P16104); test: Chromobody expression by transient transfection in H1299 cells with CSK buffer wash prior to fixation; type: cell-based; conditions: transfected H1299 cells
T2 construct: endogenous in cells; host or cells: H1299
Description: The pβA-scFv-eGFP, a derivative of pDRIVE-hβ-actin (Rinaldi, A.-S. et al.; Exp. Cell Res. 2013, 319, 838-849, doi:10.1016/j.yexcr.2013.01.011) was modified by PCR to insert in frame to the scFv the E6 tag and the mCherry protein using E6T-HindIII-For/E6T-HindIII-Rev and mCherry-For/mCherry-Rev primer pairs, respectively. This vector which carries unique NcoI and SpeI restriction sites was used to sub-clone the VHH variants as described above, thereby generating pβA-C6-E6T-mCherry, pβA-C6M-E6T-mCherry, pβA-C6B-E6T-mCherry and pβA-C6BM-E6T-mCherry.
The day before transfection, 8×10^4 cells were plated in 12-well culture plates containing glass coverslips. […]
For the analysis by classical immunofluorescence microscopy, the transfected or transduced cells were fixed with 4% paraformaldehyde for 20 minutes and, after permeabilization with 0.2% Triton X100 for 5 min, they were incubated with mAb 3F4 or VHH preparations diluted in PBS containing either 10% fetal calf serum or 2% BSA. […] The amount of fluorophore per bivalent C6 in the flow-through was calculated by spectrophotometry with a Nanodrop 2000 device (ThermoFisher Scientific). […] The signal was recorded with a Leica DFC350FX camera. […] For the measurement of the nuclear fluorescence intensity, the images of microscopy fields were acquired with the 20× objective. […]

B1: C6-mCherry chromobody (expressed in transfected H1299 cells) (other, not shown: small tags and cut ends)
VHH: MADVQLVESGGGLVQAGDSLRLSCAASGLTFSRYAMGWFRQAPGNEREFVAVITASGRTTLYADSVKGRFTISRDNAKNTVALQMQSLKPEDTAVYYCAADYGTSRYTRRQSEYEYWGQGTQVTVSSAAA
notes: Expressed under the β-actin promoter from pβA-C6-E6T-mCherry; junctions not spelled out; also called C6 chromobody; C6 nanobody-mCherry
**Q.** Does B1 bind [1]?
**A.** no binding

B2: C6-mCherry: C6 coding region fused in frame to mCherry, expressed by transfection (protein)
VHH: MADVQLVESGGGLVQAGDSLRLSCAASGLTFSRYAMGWFRQAPGNEREFVAVITASGRTTLYADSVKGRFTISRDNAKNTVALQMQSLKPEDTAVYYCAADYGTSRYTRRQSEYEYWGQGTQVTVSSAAA
modifications: left off: small tags and cut ends
notes: C6 coding region fused in frame to mCherry, expressed by transfection
**Q.** How did the “nuclear chromobody signal after CSK treatment” value (γ-H2AX in H1299 cells) turn out when B2 was run?
**A.** entirely washed off

**Q.** And the “nuclear chromobody signal after CSK treatment” value (γ-H2AX in H1299 cells; listed as C6 chromobody)?
**A.** lost in both drug-treated and untreated cells
